Measurements taken from patent US20230382819A1, “PROCESSES FOR SYNTHESIS OF ALPHA-EMITTING RADIOPHARMACEUTICALS” (priority 2020, published 2023).

Tests used:
[1] = Radiation dosimetry and clearance kinetics from BD data; type: in vivo; details: for Decay half-life, Teff: ^225Ac
Procedure: (§1) Radiochemical synthesis and characterization. Complexation was achieved by reacting DOTATATE (5-10 μg in 5-10 μL water from 1.0 mg/mL solution) with ^225Ac(NO3)3 (3.4 MBq) that was diluted in 100 μL of water containing 10 μL of 20% L-ascorbic acid. The pH was adjusted to 5.5-6 using 1 M Tris buffer (10-12 μL), and then incubated at 60° C. for 1 h (FIG. 1). […] Animal studies. An equal number of male and female subjects were assigned to each experimental cohort. All the animals were purchased from Charles River (Wilmington, MA). Injected Activity Measurement. […] Activities in syringes were measured using the Atomlab 500 Dose Calibrator (Biodex). Per the manufacturer's recommendations, measurements were made for 2 mins using dial number 38.2 and the assumption that ^225Ac and daughters were in secular equilibrium. Activity was injected into each mouse via tail-vein catheter (50 μL dead volume). […] The α activity in μCi of each radionuclide was determined by fitting each peak with a multi-Gaussian fit and integrating to determine the net number of counts while incorporating the acquisition time. The net administered activities were determined by subtraction of the residual activity in the catheter and syringe from the dose calibrator measured pre-injection activity. Spectra for activity calculations were acquired ≥24 h post-radiosynthesis ensuring that ^225Ac and daughters were in secular equilibrium (see Robertson, A. K. H.; et al. Phys Med Biol 2017, 62 (11), 4406-4420). Maximum tolerated activity/toxicity. […] Then, mice were weighed twice per week and monitored for 5 months for signs of distressed behavior, followed by euthanasia and tissue collection. Blood urea nitrogen (BUN), creatinine, alkaline phosphatase (ALKP), alanine aminotransferase (ALT) and aspartate aminotransferase (AST) content in serum were analyzed using commercial IDEXX CLIP (IDEXX, Main, USA) and read by an automated biochemical analyzer (IDEXX Catalyst DX, Main, USA) following the manufacturer's protocol. Bone, bone marrow, brain, cecum, duodenum, kidney, liver, lymph nodes, muscle, pancreas, salivary gland, small intestine, and spleen were harvested and fixed in 10% formalin. Bone was decalcified in 14% ethylene diaminetetraacetic acid (EDTA) solution after fixation in formalin. All tissues were embedded in paraffin, sectioned (4-6 μm thickness), stained with hematoxylin and eosin (H&E), and examined by the veterinary pathologist (R.E.), in a blind manner. Biodistribution (BD). […] Groups of animals were euthanized at 24, 48 and 96 h p.i., n=4 mice per time point, and tissues were removed and weighed. […] Radiation dosimetry. Dosimetry calculations were performed as previously described. […] The β decay branching ratio for ^217At to ^217Rn is only 0.01% therefore it was assumed that all decays of ^217At were by […] to ^213Bi. The branching ratios for decay of ^213Bi by 98% to ^213Po and by 2% to ^209T1 were accounted for in the calculation. Due to the relatively low LET and the small dimensions of the target tissues, the β emissions from ^217At, ^213Bi, ^209T1 and ^209Pb were assumed negligible and not included in the calculations (see Bolch, W. E.; J Nucl Med 2009, 50 (3), 477-84).
Dosimetry calculations were performed using the generalized internal dosimetry schema of the MIRD Committee for α-particle emitters. According to MIRD #21, the absorbed radiation dose due to particle type x, Dx(rT, TD) is the mean energy imparted to target tissue rT per unit tissue mass, defined by Equation 1: […]
where A(rS, TD) is the total number of nuclear transitions in the […] (accumulated activity), Δi^x is the mean energy emitted per nuclear transition, φ(rT←rS; Ei^x) is the fraction of energy emitted per nuclear transition in the source region that is absorbed in the target region by the i^th emission that is emitted with initial energy E, k is a conversion factor, and M(rT) is the mass of the target tissue.

[2] = Maximum tolerated activity/toxicity in non-tumor bearing mice; type: in vivo
Procedure: as §1, with “(BD). BD studies for ^225Ac-DOTATATE were performed using groups of normal non-tumor bearing BALB/c mice.” for “(BD).”
Anti-tumor efficacy. Efficacy studies were performed using NCI-H69 human SCLC and NCI-H727 lung carcinoid xenograft tumors in SCID mice. […] Animals were euthanized when the experimental endpoint of 2000 mm^3 tumor volume was reached. Any euthanasia performed prior to reaching 2000 mm^3 tumor volume were due to clinical endpoints, such as 20% weight loss, tumor ulceration, hunched back, scruffy fur (no longer grooming), lethargic or slow moving. Histology and immunohistochemistry (IHC). […]

[3] = mouse, in vivo
Procedure: Radiochemical synthesis and characterization. Complexation was achieved by reacting DOTATATE (5-10 μg in 5-10 μL water from 1.0 mg/mL solution) with ^225Ac(NO3)3 (3.4 MBq) that was diluted in 100 μL of water containing 10 μL of 20% L-ascorbic acid. The pH was adjusted to 5.5-6 using 1 M Tris buffer (10-12 μL), and then incubated at 60° C. for 1 h (FIG. 1). […] Animal studies. An equal number of male and female subjects were assigned to each experimental cohort. All the animals were purchased from Charles River (Wilmington, MA). Injected Activity Measurement. […] Activities in syringes were measured using the Atomlab 500 Dose Calibrator (Biodex). Per the manufacturer's recommendations, measurements were made for 2 mins using dial number 38.2 and the assumption that ^225Ac and daughters were in secular equilibrium. […] The α activity in μCi of each radionuclide was determined by fitting each peak with a multi-Gaussian fit and integrating to determine the net number of counts while incorporating the acquisition time. The net administered activities were determined by subtraction of the residual activity in the catheter and syringe from the dose calibrator measured pre-injection activity. […] Then, mice were weighed twice per week and monitored for 5 months for signs of distressed behavior, followed by euthanasia and tissue collection. […]

C[C@@H](O)[C@H](NC(=O)[C@@H]1CSSC[C@H](NC(=O)[C@@H](Cc2ccccc2)NC(=O)CN2CCN(CC(=O)O)CCN(CC(=O)O)CCN(CC(=O)O)CC2)C(=O)N[C@@H](Cc2ccc(O)cc2)C(=O)N[C@H](Cc2c[nH]c3ccccc23)C(=O)N[C@@H](CCCCN)C(=O)N[C@@H]([C@@H](C)O)C(=O)N1)C(=O)O [^225Ac-DOTATATE, metal not drawn]
Decay half-life, Teff ([1]; Brain): 67.296 h
Decay half-life, Teff ([1]; Heart): 1732.87 h
Decay half-life, Teff ([1]; Lung): 53.318 h
Decay half-life, Teff ([1]; Muscle): 141.46 h
Decay half-life, Teff ([1]; Pancreas): 115.52 h
Decay half-life, Teff ([1]; Salivary): 90.019 h
Decay half-life, Teff ([1]; Skin): 75.343 h
Decay half-life, Teff ([1]; Spleen): 111.8 h
calculated total absorbed dose ([1]; mouse, in vivo): minimal
survival ([2]; all dose levels): all animals survived to 5-months p.i.
treatment related pathologic changes in other studied organs (not kidney) ([2]; bone, bone marrow, brain, cecum, duodenum, liver, lymph nodes, muscle, pancreas, salivary gland, small intestine, spleen): None and no treatment related damage
ALKP among the cohorts (ANOVA and Dunnett's test) ([2]; mouse, in vivo): no significant differences
ALT among the cohorts (ANOVA and Dunnett's test) ([2]; mouse, in vivo): no significant differences
AST among the cohorts (ANOVA and Dunnett's test) ([2]; mouse, in vivo): no significant differences
Liver enzymes ([2]; mouse, in vivo): normal
acute kidney damage by pathology ([2]; mouse, in vivo): no acute kidney damage
clearance of activity from the tissues [3]: largely cleared
clearance route [3]: primarily cleared by the renal route, with some hepatic clearance
